# According to publication doi:10.1101/2023.08.20.554024, “Structural framework for the understanding spectroscopic and functional signatures of the cyanobacterial Orange Carotenoid Protein families” (bioRxiv, 2023):
# T1: ΔNTE-SynOCP1(ECH) (Synechocystis sp. PCC 6803, UniProt P74102 13-317)
# T1 construct: Orange Carotenoid Protein (OCP1), Synechocystis sp; PCC 6803, Uniprot P74102, lacking residues Met1-Phe12 (the N-terminal extension); also called ΔNTE mutant of SynOCP1; ΔNTE-SynOCP1 holoform; source: obtained earlier [24]
# T1 sequence (looked up): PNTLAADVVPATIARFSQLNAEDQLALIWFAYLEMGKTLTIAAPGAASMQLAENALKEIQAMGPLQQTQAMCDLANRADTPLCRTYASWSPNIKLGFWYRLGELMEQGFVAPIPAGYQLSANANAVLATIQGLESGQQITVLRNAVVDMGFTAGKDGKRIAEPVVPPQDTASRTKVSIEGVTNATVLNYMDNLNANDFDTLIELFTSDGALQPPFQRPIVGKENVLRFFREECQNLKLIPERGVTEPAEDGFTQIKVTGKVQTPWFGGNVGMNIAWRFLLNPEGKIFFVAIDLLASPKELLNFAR
# Columns and labels:
# ΔNTE-SynOCP1(ECH) = target: T1, ΔNTE-SynOCP1(ECH); assay: SEC; 10 μM OCP and 20 μM FRP pre-incubated in SEC buffer (20 mM Tris-HCl pH 7.6, 150 mM NaCl) for 15 min at room temperature; Superdex 200 Increase 5/150, 0.45 ml/min; profiles at 280 or 460 (or 500) nm, compared with algebraic sums of the single profiles; details: both partners purified
# GcapOCP2(ECH) = GcapOCP2(ECH) (Gloeocapsa sp. PCC 7428); assay: cell-based or functional assay
binder,measurement,setting,value
"Fluorescence Recovery Protein from Synechocystis sp. PCC 6803 (natural protein, UniProt P74103 1-109, looked up, Fluorescence Recovery Protein (FRP), Synechocystis sp; PCC 6803, Uniprot P74103; also called SynFRP; FRP; source: obtained in previous works [24,30] as electrophoretically homogeneous preparation devoid of tags) MLQTAEAPWSQAETQSAHALFRKAYQRELDGLLATVQAQASQITQIDDLWKLHDFLSAKRHEIDGKYDDRQSVIIFVFAQLLKEGLVQAEELTFLAADKQSKIKALARL",binding result,ΔNTE-SynOCP1(ECH),binds
same,"τ1/2 of the R-O transition of GcapOCP2 (OD550 after switching off blue LED) with a two-fold molar excess of SynFRP, 5-23 °C (203 to 250 s at 5°C, 12 to 16 s at 20°C)",GcapOCP2(ECH),250 s
